According to patent EP0651783B1, “ALKALINE PHOSPHATASE ENZYME HAVING IMPROVED SPECIFIC ACTIVITY FOR USE IN INDICATOR REAGENTS” (ABBOTT LABORATORIES, priority 1992, dated 1994):

System: O=[N+]([O-])c1ccc(OP(=O)(O)O)cc1
Test: Alkaline phosphatase kinetic constants (substrate hydrolysis)
Assay type: biochemical, Escherichia coli
Conditions: other: Table 1; substrate not named, e.g. p-nitrophenyl phosphate
Experimental: The analyses for specific activity and temperature stability were performed on highly purified protein material. In brief, the purification process involved the release of the periplasmic protein by the formation of spheroplasts, ammonium sulphate precipitation and chromatofocusing chromatography. […] Temperature stability was measured by monitoring the decay of enzyme activity at different temperatures.

“E. coli alkaline phosphatase variant pMA116, Lys^328 > Arg / Val^99 > Ala (Escherichia coli K-12; K350R/V121A)” gave a Km of 74 µM.
